Results on nine substances are retold here after paper PMC12800238.

Broadly, the pKd is −log10 of the Kd, conventionally taken in molar units. Read a low pKd as a large Kd.

pKd: −log10 of the molar value.

The target in test [1] is human VLDLR LA5 fused to human IgG1 Fc (human) (UniProt P98155). Nature of the test: BLI.
Test [2] addresses human VLDLR LA1 fused to human IgG1 Fc (human) (UniProt P98155). Kind of test: BLI.
Test [3] deals with human VLDLR LA2 fused to human IgG1 Fc (human) (UniProt P98155). Nature of the test: BLI. (Biolayer interferometry detects binding as a change in optical thickness at a sensor tip.)
Test [4] has as its target human VLDLR LA3 fused to human IgG1 Fc (human) (UniProt P98155). Nature of the test: BLI.
Test [5] deals with WEEV strain California virus-like particles (Western equine encephalitis virus, strain California). Kind of test: ELISA. (In general: An ELISA detects its analyte on a solid surface through an enzyme-linked reagent.)
For test [6], the target named is WEEV California E1 domain III fused to human IgG1 Fc (Western equine encephalitis virus, strain California). Kind of test: BLI.

Turning to “WEEV strain California virus-like particles (complex)”, the negative logarithm of the Kd (pKd) is 9.43 in test [1], 9.96 in test [2], 8.80 in test [3] and 8.22 in test [4].

Substance “human VLDLR LA1-2 fused to human IgG1 Fc (from UniProt P98155-1 28-113) (Fc fusion)” had a pKd in test [5] of 5.79.

With “human VLDLR LA1-3 fused to human IgG1 Fc (from UniProt P98155-1 28-152) (Fc fusion)”, in test [5], the pKd is 6.33.

In test [5], “human VLDLR LA1-5 fused to human IgG1 Fc (from UniProt P98155-1 28-236) (Fc fusion)” had a pKd of 6.39.

In turn, “human VLDLR LA3 fused to human IgG1 Fc (from UniProt P98155-1 111-151) (Fc fusion)” gave a pKd in test [5] of 4.96.

Substance “human VLDLR LA3 with 6x His tag (from UniProt P98155-1 111-151) (domain or fragment)” showed a pKd in test [6] of 6.08.

In turn, “human VLDLR LA5 fused to human IgG1 Fc (from UniProt P98155-1 191-236) (Fc fusion)” showed a pKd in test [5] of 5.11.

On to “human VLDLR LA5 with 6x His tag (from UniProt P98155-1 191-236) (domain or fragment)”, for which, in test [6], the pKd is 6.09.

In the case of “human VLDLR ligand-binding domain (LA1-8) fused to human IgG1 Fc (from UniProt P98155-1 28-355) (Fc fusion)”, the negative-log Kd (pKd) in test [5] was 5.92.
